Reference: patent publication US20140087995A1 (published 2014)
One block for each binder: values may come before it. Numbered stars: 1 amine (or outer) side, 2 acyl side, 3 side chain; on linkers, the order of the positions; unused ones are H or OH. Bridge positions count the residues as written; N and C are the ends. Side chains are listed from the residue outwards. Ends that are not written are not given here. * marks the point of attachment. C20 diacid = O=C(O)CCCCCCCCCCCCCCCCCCC(=O)*; γGlu = O=C(O)[C@H](CCC(=O)[*:2])N[*:1]

Legend:
[1] = target: T1, human calcitonin receptor (human, UniProt P30988 25-474); test: cell-based or functional assay
T1 sequence (looked up): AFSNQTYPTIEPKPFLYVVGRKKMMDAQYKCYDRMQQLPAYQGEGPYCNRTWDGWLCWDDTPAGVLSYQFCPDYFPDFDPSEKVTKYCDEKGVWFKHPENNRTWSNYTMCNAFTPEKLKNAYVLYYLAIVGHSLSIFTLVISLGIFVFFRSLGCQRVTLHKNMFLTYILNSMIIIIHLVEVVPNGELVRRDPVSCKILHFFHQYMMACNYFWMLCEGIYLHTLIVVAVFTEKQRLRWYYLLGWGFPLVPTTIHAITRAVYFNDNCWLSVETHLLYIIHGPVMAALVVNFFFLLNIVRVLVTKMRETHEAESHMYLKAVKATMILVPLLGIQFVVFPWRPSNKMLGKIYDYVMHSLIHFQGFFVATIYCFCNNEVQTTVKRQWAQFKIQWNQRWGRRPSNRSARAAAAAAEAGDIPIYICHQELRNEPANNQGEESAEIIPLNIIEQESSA

[2] = target: T2, human amylin receptor (amylin 3(a) receptor: human calcitonin receptor with RAMP-3) (human, UniProt P30988 25-474; O60896 24-148); test: cell-based or functional assay
T2 sequence (looked up) 1: T1 sequence (looked up)
T2 sequence (looked up) 2: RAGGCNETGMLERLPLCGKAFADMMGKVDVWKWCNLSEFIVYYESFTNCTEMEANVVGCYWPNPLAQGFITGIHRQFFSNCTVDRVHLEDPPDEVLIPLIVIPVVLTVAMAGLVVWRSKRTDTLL

B1: N^ε1-[(4S)-4-carboxy-4-(19-carboxynonadecanoylamino)butanoyl]-[Arg17,Pro21,Pro27,Glu35]-h-amylin (peptide)
peptide: K([γGlu-C20 diacid])CNTATCATQRLANFLRHSSPNFGAIPSSTNVGSETY-NH2
modifications: disulfide 2-7; N-terminus assumed
SMILES: CC[C@H](C)[C@H](NC(=O)[C@H](C)NC(=O)CNC(=O)[C@H](Cc1ccccc1)NC(=O)[C@H](CC(N)=O)NC(=O)[C@@H]1CCCN1C(=O)[C@H](CO)NC(=O)[C@H](CO)NC(=O)[C@H](Cc1c[nH]cn1)NC(=O)[C@H](CCCNC(=N)N)NC(=O)[C@H](CC(C)C)NC(=O)[C@H](Cc1ccccc1)NC(=O)[C@H](CC(N)=O)NC(=O)[C@H](C)NC(=O)[C@H](CC(C)C)NC(=O)[C@H](CCCNC(=N)N)NC(=O)[C@H](CCC(N)=O)NC(=O)[C@@H](NC(=O)[C@H](C)NC(=O)[C@@H]1CSSC[C@H](NC(=O)[C@@H](N)CCCCNC(=O)CC[C@H](NC(=O)CCCCCCCCCCCCCCCCCCC(=O)O)C(=O)O)C(=O)N[C@@H](CC(N)=O)C(=O)N[C@@H]([C@@H](C)O)C(=O)N[C@@H](C)C(=O)N[C@@H]([C@@H](C)O)C(=O)N1)[C@@H](C)O)C(=O)N1CCC[C@H]1C(=O)N[C@@H](CO)C(=O)N[C@@H](CO)C(=O)N[C@H](C(=O)N[C@@H](CC(N)=O)C(=O)N[C@H](C(=O)NCC(=O)N[C@@H](CO)C(=O)N[C@@H](CCC(=O)O)C(=O)N[C@H](C(=O)N[C@@H](Cc1ccc(O)cc1)C(N)=O)[C@@H](C)O)C(C)C)[C@@H](C)O
notes: also called compound 27
Ratio hCT/hAmylin funct. [1]: 22.6
hCTR funct. EC50 [1]: 3000 pM
hAmylin-R funct. EC50 [2]: 133 pM

B3: N^ε1-[(4S)-4-carboxy-4-[[(4S)-4-carboxy-4-(19-carboxynonadecanoylamino)butanoyl]amino]butanoyl]-[Asp14,Arg17,Pro21,Pro27,Asp35]-h-amylin (peptide)
peptide: K([γGlu-γGlu-C20 diacid])CNTATCATQRLADFLRHSSPNFGAIPSSTNVGSDTY-NH2
modifications: disulfide 2-7; N-terminus assumed
SMILES: CC[C@H](C)[C@H](NC(=O)[C@H](C)NC(=O)CNC(=O)[C@H](Cc1ccccc1)NC(=O)[C@H](CC(N)=O)NC(=O)[C@@H]1CCCN1C(=O)[C@H](CO)NC(=O)[C@H](CO)NC(=O)[C@H](Cc1c[nH]cn1)NC(=O)[C@H](CCCNC(=N)N)NC(=O)[C@H](CC(C)C)NC(=O)[C@H](Cc1ccccc1)NC(=O)[C@H](CC(=O)O)NC(=O)[C@H](C)NC(=O)[C@H](CC(C)C)NC(=O)[C@H](CCCNC(=N)N)NC(=O)[C@H](CCC(N)=O)NC(=O)[C@@H](NC(=O)[C@H](C)NC(=O)[C@@H]1CSSC[C@H](NC(=O)[C@@H](N)CCCCNC(=O)CC[C@H](NC(=O)CC[C@H](NC(=O)CCCCCCCCCCCCCCCCCCC(=O)O)C(=O)O)C(=O)O)C(=O)N[C@@H](CC(N)=O)C(=O)N[C@@H]([C@@H](C)O)C(=O)N[C@@H](C)C(=O)N[C@@H]([C@@H](C)O)C(=O)N1)[C@@H](C)O)C(=O)N1CCC[C@H]1C(=O)N[C@@H](CO)C(=O)N[C@@H](CO)C(=O)N[C@H](C(=O)N[C@@H](CC(N)=O)C(=O)N[C@H](C(=O)NCC(=O)N[C@@H](CO)C(=O)N[C@@H](CC(=O)O)C(=O)N[C@H](C(=O)N[C@@H](Cc1ccc(O)cc1)C(N)=O)[C@@H](C)O)C(C)C)[C@@H](C)O
notes: also called compound 2
Ratio hCT/hAmylin funct. [1]: 16.4
hCTR funct. EC50 [1]: 3000 pM
hAmylin-R funct. EC50 [2]: 182 pM

B4: N{Alpha-1}-[(4S)-4-carboxy-4-(19-carboxynonadecanoylamino)butanoyl]-[Glu14,Arg17,Pro21,Pro27,Lys34]-h-amylin (peptide)
peptide: {C20 diacid-γGlu}-KCNTATCATQRLAEFLRHSSPNFGAIPSSTNVGKNTY-NH2
modifications: disulfide 2-7
SMILES: CC[C@H](C)[C@H](NC(=O)[C@H](C)NC(=O)CNC(=O)[C@H](Cc1ccccc1)NC(=O)[C@H](CC(N)=O)NC(=O)[C@@H]1CCCN1C(=O)[C@H](CO)NC(=O)[C@H](CO)NC(=O)[C@H](Cc1c[nH]cn1)NC(=O)[C@H](CCCNC(=N)N)NC(=O)[C@H](CC(C)C)NC(=O)[C@H](Cc1ccccc1)NC(=O)[C@H](CCC(=O)O)NC(=O)[C@H](C)NC(=O)[C@H](CC(C)C)NC(=O)[C@H](CCCNC(=N)N)NC(=O)[C@H](CCC(N)=O)NC(=O)[C@@H](NC(=O)[C@H](C)NC(=O)[C@@H]1CSSC[C@H](NC(=O)[C@H](CCCCN)NC(=O)CC[C@H](NC(=O)CCCCCCCCCCCCCCCCCCC(=O)O)C(=O)O)C(=O)N[C@@H](CC(N)=O)C(=O)N[C@@H]([C@@H](C)O)C(=O)N[C@@H](C)C(=O)N[C@@H]([C@@H](C)O)C(=O)N1)[C@@H](C)O)C(=O)N1CCC[C@H]1C(=O)N[C@@H](CO)C(=O)N[C@@H](CO)C(=O)N[C@H](C(=O)N[C@@H](CC(N)=O)C(=O)N[C@H](C(=O)NCC(=O)N[C@@H](CCCCN)C(=O)N[C@@H](CC(N)=O)C(=O)N[C@H](C(=O)N[C@@H](Cc1ccc(O)cc1)C(N)=O)[C@@H](C)O)C(C)C)[C@@H](C)O
notes: also called compound 36
Ratio hCT/hAmylin funct. [1]: 6.8
hCTR funct. EC50 [1]: 1280 pM
hAmylin-R funct. EC50 [2]: 189 pM

B6: N^ε1-[(4S)-4-carboxy-4-(19-carboxynonadecanoylamino)butanoyl]-[Arg17,Pro21,Pro27,Lys35]-h-amylin (peptide)
peptide: K([γGlu-C20 diacid])CNTATCATQRLANFLRHSSPNFGAIPSSTNVGSKTY-NH2
modifications: disulfide 2-7; N-terminus assumed
SMILES: CC[C@H](C)[C@H](NC(=O)[C@H](C)NC(=O)CNC(=O)[C@H](Cc1ccccc1)NC(=O)[C@H](CC(N)=O)NC(=O)[C@@H]1CCCN1C(=O)[C@H](CO)NC(=O)[C@H](CO)NC(=O)[C@H](Cc1c[nH]cn1)NC(=O)[C@H](CCCNC(=N)N)NC(=O)[C@H](CC(C)C)NC(=O)[C@H](Cc1ccccc1)NC(=O)[C@H](CC(N)=O)NC(=O)[C@H](C)NC(=O)[C@H](CC(C)C)NC(=O)[C@H](CCCNC(=N)N)NC(=O)[C@H](CCC(N)=O)NC(=O)[C@@H](NC(=O)[C@H](C)NC(=O)[C@@H]1CSSC[C@H](NC(=O)[C@@H](N)CCCCNC(=O)CC[C@H](NC(=O)CCCCCCCCCCCCCCCCCCC(=O)O)C(=O)O)C(=O)N[C@@H](CC(N)=O)C(=O)N[C@@H]([C@@H](C)O)C(=O)N[C@@H](C)C(=O)N[C@@H]([C@@H](C)O)C(=O)N1)[C@@H](C)O)C(=O)N1CCC[C@H]1C(=O)N[C@@H](CO)C(=O)N[C@@H](CO)C(=O)N[C@H](C(=O)N[C@@H](CC(N)=O)C(=O)N[C@H](C(=O)NCC(=O)N[C@@H](CO)C(=O)N[C@@H](CCCCN)C(=O)N[C@H](C(=O)N[C@@H](Cc1ccc(O)cc1)C(N)=O)[C@@H](C)O)C(C)C)[C@@H](C)O
notes: also called compound 35
Ratio hCT/hAmylin funct. [1]: 15
hCTR funct. EC50 [1]: 5460 pM
hAmylin-R funct. EC50 [2]: 364 pM

Second part, the binder after the results:

Ratio hCT/hAmylin funct. [1]: 2.2
hCTR funct. EC50 [1]: 470 pM
hAmylin-R funct. EC50 [2]: 213 pM
B2: N^ε1-[(4S)-4-carboxy-4-[[(4S)-4-carboxy-4-(19-carboxynonadecanoylamino)butanoyl]amino]butanoyl]-[Glu14,Arg17,Pro21,Pro27,Pro37]-h-amylin (peptide)
peptide: K([γGlu-γGlu-C20 diacid])CNTATCATQRLAEFLRHSSPNFGAIPSSTNVGSNTP-NH2
modifications: disulfide 2-7; N-terminus assumed
SMILES: CC[C@H](C)[C@H](NC(=O)[C@H](C)NC(=O)CNC(=O)[C@H](Cc1ccccc1)NC(=O)[C@H](CC(N)=O)NC(=O)[C@@H]1CCCN1C(=O)[C@H](CO)NC(=O)[C@H](CO)NC(=O)[C@H](Cc1c[nH]cn1)NC(=O)[C@H](CCCNC(=N)N)NC(=O)[C@H](CC(C)C)NC(=O)[C@H](Cc1ccccc1)NC(=O)[C@H](CCC(=O)O)NC(=O)[C@H](C)NC(=O)[C@H](CC(C)C)NC(=O)[C@H](CCCNC(=N)N)NC(=O)[C@H](CCC(N)=O)NC(=O)[C@@H](NC(=O)[C@H](C)NC(=O)[C@@H]1CSSC[C@H](NC(=O)[C@@H](N)CCCCNC(=O)CC[C@H](NC(=O)CC[C@H](NC(=O)CCCCCCCCCCCCCCCCCCC(=O)O)C(=O)O)C(=O)O)C(=O)N[C@@H](CC(N)=O)C(=O)N[C@@H]([C@@H](C)O)C(=O)N[C@@H](C)C(=O)N[C@@H]([C@@H](C)O)C(=O)N1)[C@@H](C)O)C(=O)N1CCC[C@H]1C(=O)N[C@@H](CO)C(=O)N[C@@H](CO)C(=O)N[C@H](C(=O)N[C@@H](CC(N)=O)C(=O)N[C@H](C(=O)NCC(=O)N[C@@H](CO)C(=O)N[C@@H](CC(N)=O)C(=O)N[C@H](C(=O)N1CCC[C@H]1C(N)=O)[C@@H](C)O)C(C)C)[C@@H](C)O
notes: also called compound 13

Ratio hCT/hAmylin funct. [1]: 1.8
hCTR funct. EC50 [1]: 185 pM
hAmylin-R funct. EC50 [2]: 101 pM
B5: N^ε1-[(4S)--4-carboxy-4-(19-carboxynonadecanoylamino)butanoyl]-[Glu14,Arg17,Pro21,Pro27,Pro37]-h-amylin (peptide)
peptide: K([γGlu-C20 diacid])CNTATCATQRLAEFLRHSSPNFGAIPSSTNVGSNTP-NH2
modifications: disulfide 2-7; N-terminus assumed
SMILES: CC[C@H](C)[C@H](NC(=O)[C@H](C)NC(=O)CNC(=O)[C@H](Cc1ccccc1)NC(=O)[C@H](CC(N)=O)NC(=O)[C@@H]1CCCN1C(=O)[C@H](CO)NC(=O)[C@H](CO)NC(=O)[C@H](Cc1c[nH]cn1)NC(=O)[C@H](CCCNC(=N)N)NC(=O)[C@H](CC(C)C)NC(=O)[C@H](Cc1ccccc1)NC(=O)[C@H](CCC(=O)O)NC(=O)[C@H](C)NC(=O)[C@H](CC(C)C)NC(=O)[C@H](CCCNC(=N)N)NC(=O)[C@H](CCC(N)=O)NC(=O)[C@@H](NC(=O)[C@H](C)NC(=O)[C@@H]1CSSC[C@H](NC(=O)[C@@H](N)CCCCNC(=O)CC[C@H](NC(=O)CCCCCCCCCCCCCCCCCCC(=O)O)C(=O)O)C(=O)N[C@@H](CC(N)=O)C(=O)N[C@@H]([C@@H](C)O)C(=O)N[C@@H](C)C(=O)N[C@@H]([C@@H](C)O)C(=O)N1)[C@@H](C)O)C(=O)N1CCC[C@H]1C(=O)N[C@@H](CO)C(=O)N[C@@H](CO)C(=O)N[C@H](C(=O)N[C@@H](CC(N)=O)C(=O)N[C@H](C(=O)NCC(=O)N[C@@H](CO)C(=O)N[C@@H](CC(N)=O)C(=O)N[C@H](C(=O)N1CCC[C@H]1C(N)=O)[C@@H](C)O)C(C)C)[C@@H](C)O
notes: also called compound 12
